Results reported in patent US20250084177A1 (HUAHUI HEALTH, published 2025).
Residue numbers refer to the chain shown, from its start. Names may count otherwise.

Experiments:
[1] = molecular target: T1, hCD98 ECD-His6-Avi (human, UniProt P08195 105-529, biotinylated by BirA ligase on the Avi tag (form used in ELISA)); test: SPR (Biacore T200), antibody captured, hCD98 ECD as analyte
T1 construct: also called hCD98 ECD-His6-Avi-Biotin; not shown: His6-Avi tag
T1 sequence: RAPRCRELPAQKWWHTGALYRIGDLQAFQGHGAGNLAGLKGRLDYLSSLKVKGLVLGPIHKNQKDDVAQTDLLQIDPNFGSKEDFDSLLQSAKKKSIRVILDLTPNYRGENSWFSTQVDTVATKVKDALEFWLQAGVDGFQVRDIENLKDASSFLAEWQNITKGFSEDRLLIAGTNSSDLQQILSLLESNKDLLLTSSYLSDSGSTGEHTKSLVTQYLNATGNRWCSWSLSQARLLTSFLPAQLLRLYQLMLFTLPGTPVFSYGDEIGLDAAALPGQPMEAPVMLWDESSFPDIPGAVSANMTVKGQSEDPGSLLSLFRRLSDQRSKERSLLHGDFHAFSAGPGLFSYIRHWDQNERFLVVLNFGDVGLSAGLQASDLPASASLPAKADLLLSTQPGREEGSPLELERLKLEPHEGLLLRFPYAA

[2] = molecular target: T1, hCD98 ECD-His6-Avi; test: SPR (Biacore T200), antibody captured, hCD98 ECD as analyte, 1:1 Langmuir model
Method: (§1) Kinetic analysis of the bindings of anti-CD98 antibodies to the ECD of CD98, and the ECD of FcγRs were performed on a Biacore T200 instrument (Biacore, GE Healthcare). Anti-hFc Ab or protein A/G (Thermo Fisher Scientific) was covalently attached to the surface of a CM5 sensor chip using an amine coupling kit (GE Healthcare). Antibodies at optimal concentrations were captured on the chip and the analytes (CD98 or FcγRs) were then injected at 2-fold serial diluted concentrations. Binding kinetics were evaluated using a 1:1 Langmuir binding model. The ka, kd, and KD values were calculated using Biacore T200 evaluation software.

[3] = molecular target: T1, hCD98 ECD-His6-Avi; test: ELISA at pH 7.4 on hCD98 ECD-His6-Avi-Biotin
[4] = molecular target: T1, hCD98 ECD-His6-Avi; test: ELISA at pH 7.4 and pH 6.5 on hCD98 ECD-His6-Avi-Biotin
[5] = molecular target: T1, hCD98 ECD-His6-Avi; test: ELISA at pH 6.5 on hCD98 ECD-His6-Avi-Biotin
[6] = molecular target: T1, hCD98 ECD-His6-Avi; test: ELISA, EC50 ratio pH 7.4/6.5 against that of S1-F4 Y97E
Method: (§2) For the ELISA-based analysis of antibody binding with antigen, biotinylated protein antigens were captured with streptavidin (Sigma-Aldrich) coated 96-well plates (Nunc, MaxiSorp™). Then, serially diluted antibodies were added, and detected by adding an HRP-labeled goat polyclonal anti-Human IgG Fc (Thermo Fisher Scientific).

[7] = molecular target: T1, hCD98 ECD-His6-Avi; test: ELISA at pH 7.4 and pH 6.5 on hCD98 ECD
[8] = molecular target: T1, hCD98 ECD-His6-Avi; test: ELISA at pH 6.5, biotinylated hCD98 ECD captured on streptavidin
Method: as §2

[9] = molecular target: T1, hCD98 ECD-His6-Avi; test: ELISA at pH 7.4, biotinylated hCD98 ECD captured on streptavidin, HRP anti-human IgG Fc
Method: as §2

[10] = molecular target: T1, hCD98 ECD-His6-Avi; test: ELISA at pH 6.5, ratio of EC50 values against S1-F4 Y97E
[11] = molecular target: T1, hCD98 ECD-His6-Avi; test: ELISA at pH 7.4, biotinylated hCD98 ECD captured on streptavidin; pH 7.4
Method: as §2

[12] = molecular target: T1, hCD98 ECD-His6-Avi; test: ELISA at pH 6.5, biotinylated hCD98 ECD captured on streptavidin; pH 6.5
Method: as §2

[13] = molecular target: T2, HEK293T-mCD98 (Mus musculus, UniProt P10852); test: FACS on leukocytes of C57BL/6 mice, FITC anti-human IgG secondary
T2 construct: full length, on cells or tissue; Cell-surface counterpart of m7 (the soluble mCD98 ECD), as m5 is of m4; also called mouse CD98 (mCD98) on cells; CD98 of C57BL/6 kidney and leukocytes
T2 sequence (CD98 heavy chain, looked up): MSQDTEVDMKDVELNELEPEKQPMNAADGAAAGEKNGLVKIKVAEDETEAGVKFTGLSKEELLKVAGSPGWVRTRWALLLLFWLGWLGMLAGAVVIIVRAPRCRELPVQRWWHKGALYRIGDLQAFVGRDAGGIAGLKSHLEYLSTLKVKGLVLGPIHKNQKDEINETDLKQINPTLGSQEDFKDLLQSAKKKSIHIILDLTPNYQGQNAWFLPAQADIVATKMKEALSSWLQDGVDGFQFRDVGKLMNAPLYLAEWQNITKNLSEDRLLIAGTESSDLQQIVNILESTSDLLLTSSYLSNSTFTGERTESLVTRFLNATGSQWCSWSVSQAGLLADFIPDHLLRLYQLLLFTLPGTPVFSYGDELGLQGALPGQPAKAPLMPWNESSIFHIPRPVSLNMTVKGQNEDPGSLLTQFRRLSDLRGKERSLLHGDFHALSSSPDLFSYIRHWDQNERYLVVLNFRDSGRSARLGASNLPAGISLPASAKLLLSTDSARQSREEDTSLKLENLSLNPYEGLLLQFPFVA

[14] = molecular target: T1, hCD98 ECD-His6-Avi; test: SPR (Biacore T200), antibody captured, CD98 ECD as analyte, 1:1 Langmuir model
Method: as §1

[15] = molecular target: T3, mouse CD98 (mCD98) ECD (mouse, UniProt P10852 100-526); test: SPR (Biacore T200), antibody captured, CD98 ECD as analyte; table cells 'n.m.'
T3 construct: extracellular domain; By the methods the CD98 ECDs were His6-Avi-tagged; also called murine CD98
T3 sequence (looked up): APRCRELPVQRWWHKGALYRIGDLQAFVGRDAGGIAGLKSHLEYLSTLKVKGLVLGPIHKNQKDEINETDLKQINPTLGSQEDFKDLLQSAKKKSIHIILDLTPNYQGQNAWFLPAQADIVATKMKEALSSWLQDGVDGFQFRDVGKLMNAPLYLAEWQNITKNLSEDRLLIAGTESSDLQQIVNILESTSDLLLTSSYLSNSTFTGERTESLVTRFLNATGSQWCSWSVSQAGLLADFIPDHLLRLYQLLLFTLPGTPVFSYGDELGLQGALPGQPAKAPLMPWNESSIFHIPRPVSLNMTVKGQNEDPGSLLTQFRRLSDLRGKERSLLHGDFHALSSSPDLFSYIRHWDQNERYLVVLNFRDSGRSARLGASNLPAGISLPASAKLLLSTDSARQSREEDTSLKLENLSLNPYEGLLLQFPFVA
Method: as §1

[16] = molecular target: T4, human CD98 (hCD98) on cells (human, UniProt P08195 2-529); test: immunofluorescence on kidney sections of CD98 humanized mice (hCD98 ECD knock-in), FITC anti-human IgG secondary
T4 construct: also called CHO-hCD98; hCD98-expressing CHO cells
T4 sequence: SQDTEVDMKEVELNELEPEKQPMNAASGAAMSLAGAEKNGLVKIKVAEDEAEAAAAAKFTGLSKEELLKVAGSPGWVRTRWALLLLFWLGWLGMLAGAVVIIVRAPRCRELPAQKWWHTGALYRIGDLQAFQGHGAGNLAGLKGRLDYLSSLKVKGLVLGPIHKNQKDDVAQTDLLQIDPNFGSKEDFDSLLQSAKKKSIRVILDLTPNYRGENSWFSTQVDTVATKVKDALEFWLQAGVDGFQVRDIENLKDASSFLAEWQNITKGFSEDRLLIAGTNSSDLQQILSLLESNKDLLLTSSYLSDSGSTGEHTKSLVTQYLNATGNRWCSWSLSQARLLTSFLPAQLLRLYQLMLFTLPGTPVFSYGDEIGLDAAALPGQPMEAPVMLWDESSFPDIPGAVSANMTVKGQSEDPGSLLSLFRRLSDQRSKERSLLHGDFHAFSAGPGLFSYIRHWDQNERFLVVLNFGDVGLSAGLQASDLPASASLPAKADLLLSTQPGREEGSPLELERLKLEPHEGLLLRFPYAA

[17] = molecular target: T3, mouse CD98 (mCD98) ECD; test: SPR (Biacore T200), antibody captured, mouse CD98 ECD as analyte, 1:1 Langmuir model
Method: as §1

B1: HN2-G9 (antibody, V domains shown)
VH: QVQLVQSGAEVKKPGSSVKVSCKASGYTFTSYYMHWVRQAPGQGLEWMGIINPSGGSTSYAQKFQGRVTMTRDTSTSTVYMELSSLRSEDTAVYFCARGYCSGGRCYSDFQHWGQGTLVTVSS
VL: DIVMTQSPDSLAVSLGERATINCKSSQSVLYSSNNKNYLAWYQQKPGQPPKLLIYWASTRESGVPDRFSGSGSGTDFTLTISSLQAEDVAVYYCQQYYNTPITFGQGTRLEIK
[1]
  Kd: 1290 nM
[2]
  koff: 0.102 s⁻¹
  kon: 787000 M⁻¹ s⁻¹

B2: IGN523 (antibody, V domains shown)
VH: QVQLVQSGAEVKKPGSSVKVSCKASGNAFTNYLIEWVRQAPGQGLEWMGVINPGSGITNYNEKFKGKATITADKSTSTAYMELSSLRSEDTAVYYCSGSANWFAYWGQGTLVTVSS
VL: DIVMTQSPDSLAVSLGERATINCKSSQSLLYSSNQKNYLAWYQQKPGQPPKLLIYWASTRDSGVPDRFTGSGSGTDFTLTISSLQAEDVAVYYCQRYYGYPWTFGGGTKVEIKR
[2]
  Kd: 0.722 nM
  koff: 0.000145 s⁻¹
  kon: 201000 M⁻¹ s⁻¹

B3: Ab8332 (antibody, V domains shown)
VH: QVQLVQSGAEVKKPGASVKVSCKASGYTFTSYQMHWVRQAPGQGLEWMGIINPSGGSTSYAQKFQGRVTMTRDTSTSTVYMELSSLRSEDTAVYYCARGYEDSNTHQHPIFFDIWGQGTMVTVSS
VL: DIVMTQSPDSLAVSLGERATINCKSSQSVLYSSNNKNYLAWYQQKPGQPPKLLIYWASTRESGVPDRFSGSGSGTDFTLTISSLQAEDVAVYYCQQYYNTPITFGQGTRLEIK
notes: human IgG1 format by the methods
[3]
  EC50 (read off the curve): ~5 nM
[4]
  EC50 ratio (pH 7.4/6.5): 50.7
[5]
  EC50 (read off the curve): ~0.1 nM

B4: H15L1 (antibody, human IgG1, V domains shown)
VH: B3 VH with P53D, S54K, G55H
VL: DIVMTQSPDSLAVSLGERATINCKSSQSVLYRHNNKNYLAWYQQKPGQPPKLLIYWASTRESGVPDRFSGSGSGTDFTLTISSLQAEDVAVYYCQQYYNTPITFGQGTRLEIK
notes: as for B3
[4]
  EC50 ratio (pH 7.4/6.5): 11.8

B5: H15L54 (antibody, human IgG1, V domains shown)
VH: B3 VH with P53D, S54K, G55H
VL: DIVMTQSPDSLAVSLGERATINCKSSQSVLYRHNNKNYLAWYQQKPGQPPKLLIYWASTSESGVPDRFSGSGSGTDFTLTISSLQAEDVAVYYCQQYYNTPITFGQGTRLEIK
notes: human IgG1 format by the methods; also called pH-dependent anti-hCD98 antibody H15L54
[6]
  fold higher binding pH-dependence than S1-F4 Y97E: ~14 fold
[7]
  EC50 ratio (pH 7.4/6.5): 38
[8]
  EC50: 0.247 nM
[9]
  EC50 (read off the curve): ~5 nM
[10]
  fold higher binding activity at pH 6.5 than S1-F4 Y97E: ~7 fold

B6: S1-F4 Y97E (antibody, V domains shown)
VH: B3 VH with Q33Y, S103I, N104L, H106G, Q107S, H108R
VL: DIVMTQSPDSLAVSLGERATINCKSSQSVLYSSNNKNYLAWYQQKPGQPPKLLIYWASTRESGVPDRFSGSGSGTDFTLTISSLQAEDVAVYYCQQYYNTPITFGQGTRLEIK
notes: S1-F4 with Y97E in HCDR3; also called S1-F4 VH Y97E
[7]
  EC50 ratio (pH 7.4/6.5): 2.7
[11]
  EC50: 4.53 nM
[12]
  EC50: 1.69 nM

B7: H15L35 (antibody, human IgG1, V domains shown)
VH: B3 VH with P53D, S54K, G55H
VL: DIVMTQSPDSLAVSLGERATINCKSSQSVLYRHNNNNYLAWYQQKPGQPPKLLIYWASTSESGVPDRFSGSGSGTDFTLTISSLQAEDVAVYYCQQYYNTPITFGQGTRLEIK
notes: as for B3
[4]
  EC50 ratio (pH 7.4/6.5): 16

B8: S1-F4 (antibody, V domains shown)
VH: B3 VH with Q33Y, E101Y, S103I, N104L, H106G, Q107S, H108R
VL: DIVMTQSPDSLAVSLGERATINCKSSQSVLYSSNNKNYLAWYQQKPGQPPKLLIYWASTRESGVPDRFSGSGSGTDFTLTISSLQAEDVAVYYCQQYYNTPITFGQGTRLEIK
notes: Obtained by VH chain shuffling of HN2-G9; also called anti-hCD98 antibody S1-F4
[13]
  binding result: no binding (tested: 10 µg/ml)
[14]
  Kd: 58.2 nM
  koff: 0.0576 s⁻¹
  kon: 990000 M⁻¹ s⁻¹
[15]
  binding result: no binding
[11]
  EC50: 0.046 nM
[12]
  EC50: 0.059 nM

B9: BC8 (antibody, V domains shown)
VH: EVQLVESGGGVVQPGRSLRLSCAASGFTVSNNYMSWVRQAPGKGLEWVSVIYSGGKTYYADSAKGRFTISRDNSKNTVFLQMNSLRVEDTAVYYCARVSGLGWFDPWGQGTLVTVSS
VL: not shown
notes: human IgG1 format by the methods (detected with anti-human IgG); also called anti-mouse CD98 antibody BC8; mCD98-specific Ab
[16]
  binding result: no binding (tested: 15 µg/ml)
[17]
  Kd: 86.1 nM
  koff: 0.00344 s⁻¹
  kon: 40000 M⁻¹ s⁻¹
